Measurements from patent US20220315661A1 (Genmab, published 2022).
Where “and” joins values, the source holds several entries; their conditions need not be identical. Equal entries are not always repeated. Blank lines part the entries; values can stand above or below the binder they belong to.

Tests used:
kDR5ECDdelHis [1] = molecular target: T1, kDR5ECDdelHis (human); assay: Bio-Layer Interferometry (Octet HTX), antibody on AHC biosensor, kDR5ECDdelHis in solution, n = 2
T1 construct: DR5ECDdelHis in which the DR5 signal peptide (aa 1-57) is replaced by that of Kappa 2F8; C-terminal His tag; also called soluble recombinant extracellular domain of human DR5; human recombinant DR5
T1 chain: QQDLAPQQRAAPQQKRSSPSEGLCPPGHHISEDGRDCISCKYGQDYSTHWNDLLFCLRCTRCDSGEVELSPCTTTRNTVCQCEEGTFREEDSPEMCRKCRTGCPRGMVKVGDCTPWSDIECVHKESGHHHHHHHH

[2] = molecular target: T2, Cyno DR5Mfdel-K420N (cynomolgus monkey DR5 with deletion of aa 185-213 and K420N), expressed on CHO-S cells (cynomolgus monkey); assay: flow cytometry on CHO-S cells expressing cynomolgus monkey DR5, average n = 4 (SD)
T2 construct: includes the signal peptide; also called CHO-S cells expressing cynomolgus monkey DR5
T2 chain: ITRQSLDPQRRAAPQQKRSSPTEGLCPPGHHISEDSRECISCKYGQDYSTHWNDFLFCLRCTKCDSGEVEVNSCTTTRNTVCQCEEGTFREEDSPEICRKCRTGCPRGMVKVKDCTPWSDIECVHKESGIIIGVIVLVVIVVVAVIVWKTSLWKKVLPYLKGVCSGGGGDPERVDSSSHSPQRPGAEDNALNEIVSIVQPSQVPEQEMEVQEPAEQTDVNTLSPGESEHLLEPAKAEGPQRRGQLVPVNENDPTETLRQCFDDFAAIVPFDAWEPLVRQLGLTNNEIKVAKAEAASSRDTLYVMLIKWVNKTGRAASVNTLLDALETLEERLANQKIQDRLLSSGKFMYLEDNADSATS

kDR5ECDdelHis [3] = molecular target: T1, kDR5ECDdelHis; assay: Bio-Layer Interferometry (Octet HTX), antibody on AHC biosensor, kDR5ECDdelHis in solution, n = 3
DR5ECD-FcRbHisCtag = molecular target: T3, DR5ECD-FcRbHisCtag (human); assay: ELISA, DR5 fusion protein captured on a penta-His antibody coat, detection with HRP goat anti-human IgG F(ab')2, OD 405 nm
T3 construct: also called fully human DR5 antigen; extracellular domain of human DR5 natural variant P32L

[4] = molecular target: T4, DR5sh139-166ECDdel-FcRbHisCtag (human, with aa 139-166 replaced by the …); assay: as above
T4 chain: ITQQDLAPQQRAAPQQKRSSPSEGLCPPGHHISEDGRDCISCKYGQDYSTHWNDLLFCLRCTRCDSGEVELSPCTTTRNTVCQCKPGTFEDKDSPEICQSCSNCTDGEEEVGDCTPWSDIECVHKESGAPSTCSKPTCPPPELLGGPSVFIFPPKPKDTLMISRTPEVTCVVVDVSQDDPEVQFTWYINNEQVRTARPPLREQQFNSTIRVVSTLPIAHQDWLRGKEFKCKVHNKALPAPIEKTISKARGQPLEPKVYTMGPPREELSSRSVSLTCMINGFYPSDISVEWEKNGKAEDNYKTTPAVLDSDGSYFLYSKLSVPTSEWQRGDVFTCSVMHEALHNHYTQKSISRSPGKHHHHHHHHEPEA

[5] = molecular target: DR5sh79-115ECDdel-FcRbHisCtag (human, with aa 79-115 replaced by the …); assay: ELISA, DR5 fusion protein captured by penta-his antibody
Murine DR5 = molecular target: T5, Murine DR5 (mouse, UniProt Q9QZM4 53-381, limits assumed); assay: flow cytometry (FIG. 3D)
T5 construct: also called mouse DR5; Murine DRS (Uniprot Q9QZM4)
T5 sequence (Q9QZM4 53-381 limits assumed): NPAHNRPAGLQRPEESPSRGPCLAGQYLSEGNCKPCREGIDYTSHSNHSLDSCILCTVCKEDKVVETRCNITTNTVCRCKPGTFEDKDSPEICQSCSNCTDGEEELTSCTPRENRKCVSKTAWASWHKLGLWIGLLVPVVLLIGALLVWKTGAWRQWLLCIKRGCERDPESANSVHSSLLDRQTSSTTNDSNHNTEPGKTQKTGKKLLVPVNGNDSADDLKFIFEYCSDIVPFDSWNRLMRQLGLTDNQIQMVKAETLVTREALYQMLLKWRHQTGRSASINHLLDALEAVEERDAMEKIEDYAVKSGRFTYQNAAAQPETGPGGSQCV

- Kd (kDR5ECDdelHis [1]): 28.5 nM
B1: IgG1-hDR5-05 (antibody)
heavy: not shown
light: DIQLTQSPSSLSASVGDRVTITCSASSSVSYMYWYQQKPGKAPKPWIYRTSNLASGVPSRFSGSGSGTDFTLTISSLQPEDFATYYCQQYHSYPPTFGGGTKVEIKRTVAAPSVFIFPPSDEQLKSGTASVVCLLNNFYPREAKVQWKVDNALQSGNSQESVTEQDSKDSTYSLSSTLTLSKADYEKHKVYACEVTHQGLSSPVTKSFNRGEC
notes: Humanized IgG1,kappa without the E430G mutation; also called WT counterpart of IgG1-hDR5-05-E430G

- EC50 [2]: 0.17 µg/mL and 1.16 nM
- Kd (kDR5ECDdelHis [3]): 27.1 nM
- EC50 (read off the curve) (DR5ECD-FcRbHisCtag): ~0.02 µg/mL
- EC50 (read off the curve) [4]: ~0.02 µg/mL
B2: IgG1-hDR5-05-E430G (antibody)
heavy: not shown
light: B1 light
notes: Humanized IgG1,kappa with E430G (Eu numbering); also called IgG1-DR5-05-E430G; HC hDR5-05-E430G / LC hDR5-05
- binding result [5]: no binding (tested: range 0.46-1,000 ng/mL)

- binding result (Murine DR5): no binding
B3: IgG1-hDR5-05-F405L (antibody)
heavy: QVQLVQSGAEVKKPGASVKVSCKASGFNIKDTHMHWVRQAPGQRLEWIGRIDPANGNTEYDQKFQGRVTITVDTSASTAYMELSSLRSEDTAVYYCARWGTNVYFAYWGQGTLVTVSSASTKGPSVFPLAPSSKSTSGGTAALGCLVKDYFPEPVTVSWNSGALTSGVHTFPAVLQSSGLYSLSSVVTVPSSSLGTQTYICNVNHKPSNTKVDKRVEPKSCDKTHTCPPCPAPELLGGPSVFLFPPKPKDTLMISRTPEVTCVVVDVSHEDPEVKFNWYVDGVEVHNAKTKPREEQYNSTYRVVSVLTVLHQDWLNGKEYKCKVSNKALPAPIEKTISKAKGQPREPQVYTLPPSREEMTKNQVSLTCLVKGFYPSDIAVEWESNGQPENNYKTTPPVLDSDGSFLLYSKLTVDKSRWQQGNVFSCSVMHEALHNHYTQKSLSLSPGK
light: B1 light
notes: Humanized IgG1,kappa with F405L; also called HC hDR5-05-F405L / LC hDR5-05
